Reference: patent US9624471B2, “Methods for maturing cardiomyocytes and uses thereof” (UNIVERSITY OF WASHINGTON THROUGH ITS CENTER FOR …, priority 2013, dated 2017)

Key:
HECT293FT cells = assay: Lipofectamine transient transfection of plko-let-7g and plko-let-7g-E plasmids, mature let-7g and target expression after 24 hrs; assay type: cell-based; details: 24 hrs after transfection
Procedure: FIGS. 20A-20B Modified let-7g (let-7g-E) is more efficient in generating mature let-7g in HECT293FT cells. Let-7g and a modified version of let-7g (plko-let-7g-E) were induced in hect 293 FT cells by introducing plko-let-7g and plko-let-7g-E plasmids with lipofectamine transient transfection assay. 24 hrs after transfection, cells were tested for mature let-7g expression. […] (FIG. 20B) Targets of let-7 are repressed when we over-express let-7g-E similar to that seen during over-expression of let-7g.

RUES2-CMs [1] = assay: Immunocytochemistry (α-actinin staining) and morphological analysis of lentivirally transduced cardiomyocytes; assay type: cell-based, human; details: Lin28a OE CMs compared to EV control
Procedure: Undifferentiated human embryonic stem cell (hESCs) lines H7 (NIHhESCC-10-0061) and RUES2 (NIHhESC-09-0013) were expanded using mouse embryonic fibroblast-conditioned medium with 5 ng/ml basic fibroblast growth factor. H7-CMs were derived using previously reported protocols^1-3. RUES2-CMs were used for all functional analyses and these were derived using a cardiac progenitor cell differentiation protocol^4 derived from previously reported monolayer directed differentiation methods^1, 5, 6. In brief, this involves the induction of a monolayer of hESCs with activin A and bone morphogenetic protein-4 (BMP4) under serum- and insulin-free conditions. During the early stages of differentiation, the cells were also exposed to the Wnt agonist CHIR 99021 followed by the Wnt antagonist Xav939. From 7 days of in vitro differentiation, the cells were fed every alternate day with serum-free RPMI-B27 plus insulin media. After 20 days of in vitro differentiation, the cells were trypsinized and replated. Only those cell preparations that had at least 70% cardiac troponin T-positive CMs (as observed by flow cytometry) were used for further experiments. For experiments where the H7-CMs were cultured for around a year, the cells were replated after the 3rd and 11th month from day 0. At the 11th month, FACS analysis for cTnT was conducted and the CMs were split into three parts and were cultured as three independent replicates for another 1.5 months after which they were harvested for RNA extraction. IMR90iPSC-CMs cultured for 1 yr were replated at day 20 and split every 2 months for 12 months before harvesting for RNA extraction. To generate engineered cardiac tissue, the inventors used the procedure reported by Tulloch et al.^2 In brief, day 20 CMs are suspended in the collagen gel at 10,000/μl, and rod-shaped constructs of 25 μl (1 mm radius×8 mm length) were generated by casting in a preformed mold and warming to 37° C. The ends of the mold contain Velcro-like micro-fiber loops, and these become impregnated with gel+cell mixture. These tabs allow the constructs to be maintained under static tension, which facilitates alignment and differentiation of the CMs. The constructs were maintained in the serum-free RPMI-B27 plus glutamine media up to 2 weeks. For let-7 overexpression analysis, the CMs were transduced with the virus carrying the pLKO-let-7 or empty vector control pLKO plasmid at day 12 of the directed differentiation protocol. After overnight transduction the virus was removed, cells were rinsed with PBS and new media added. The samples were analyzed at day 30 from the initiation of differentiation.
All morphological analyses were carried out using at least 50 cells. Cells replated in chamber slides were fixed in 4% paraformaldehyde for 15 minutes followed by PBS wash. The fixed cells were blocked for an hour with 1.5% normal goat serum and incubated O/N with mouse alpha actinin (sigma) primary antibody. The primary antibody was rinsed with PBS and incubated with secondary antibody (Alexa fluor 488 [Goat anti mouse]) for an hour followed by nuclear staining using DAPI. For cell area and perimeter measurements, images were acquired and processed using ZEISS™ AXIO fluorescent microscope and AXIOVISION™ software. For sarcomere length, images were acquired and processed using LEICA™ TCS-SPE confocal microscope and LEICA™ software. These confocal images were used to select 1-2 myofibrils per cell with at least ten continuous, well-recognized alpha-actinin bands and divided the length value by the number of sarcomeres. The images were further analyzed using IMAGE J™ software.
For lenti-let-7 OE constructs, Pri-miR-let-7i and pri-miR-let-7g sequence was amplified from H7 genomic DNA using forward primer for let-7i-TCCGCGTGGTCCCGT; reverse primer for let-7i-ATTGTCCTCCGCGGCGC and forward primer for let-7g-AGAGTTCCTCCAGCGCTCC; reverse primer for let-7g-CCCCACTTGGCAGCTGGC, resulting in 153 bp and 154 bp products, respectively. […]

RUES2-CMs [2] = assay: mRNA and miRNA qPCR analysis in transduced RUES2-CMs; assay type: cell-based, human; details: Lin28a OE hESC-CMs
Procedure: Undifferentiated human embryonic stem cell (hESCs) lines H7 (NIHhESCC-10-0061) and RUES2 (NIHhESC-09-0013) were expanded using mouse embryonic fibroblast-conditioned medium with 5 ng/ml basic fibroblast growth factor. H7-CMs were derived using previously reported protocols^1-3. RUES2-CMs were used for all functional analyses and these were derived using a cardiac progenitor cell differentiation protocol^4 derived from previously reported monolayer directed differentiation methods^1, 5, 6. In brief, this involves the induction of a monolayer of hESCs with activin A and bone morphogenetic protein-4 (BMP4) under serum- and insulin-free conditions. During the early stages of differentiation, the cells were also exposed to the Wnt agonist CHIR 99021 followed by the Wnt antagonist Xav939. From 7 days of in vitro differentiation, the cells were fed every alternate day with serum-free RPMI-B27 plus insulin media. After 20 days of in vitro differentiation, the cells were trypsinized and replated. Only those cell preparations that had at least 70% cardiac troponin T-positive CMs (as observed by flow cytometry) were used for further experiments. For experiments where the H7-CMs were cultured for around a year, the cells were replated after the 3rd and 11th month from day 0. […] The samples were analyzed at day 30 from the initiation of differentiation. […]

B1: let-7g-E: modified hsa-let-7g with mutated GGAG LIN28 binding motif, SEQ ID NO: 12 (also SEQ ID NO: 16) (nucleic acid, listed as Homo sapiens)
chain: AGGCUGAGGUAGUAGUUUGUACAGUUUGAGGGUCUAUGAUACCACCCGGUACAUCAGAUAACUGUACAGGCCACUGCCUUGCCA
modifications: listed as RNA, chemistry not fully specified
Targets of let-7 expression (HECT293FT cells): repressed | mature let-7g expression (HECT293FT cells; compared to EV and native let-7g): much higher expression

B2: Lin28a: Lin28a over-expressed in RUES2-CMs; LIN28 is the negative regulator of let-7 processing (protein, UniProt Q9H9Z2 2-209, looked up)
Protein lin-28 homolog A: GSVSNQQFAGGCAKAAEEAPEEAPEDAARAADEPQLLHGAGICKWFNVRMGFGFLSMTARAGVALDPPVDVFVHQSKLHMEGFRSLKEGEAVEFTFKKSAKGLESIRVTGPGGVFCIGSERRPKGKSMQKRRSKGDRCYNCGGLDHHAKECKLPPQPKKCHFCQSISHMVASCPLKAQQGPSAQGKPTYFREEEEEIHSPTLLPEAQN
cell area (RUES2-CMs [1]): significant decrease | circularity index (RUES2-CMs [1]): increase | sarcomere length (RUES2-CMs [1]): significant decrease | cell perimeter (RUES2-CMs [1]; N=50 cells per condition): significant decrease | let-7i and let-7g expression (RUES2-CMs [2]): down-regulated
